T1: Recombinant equine MHC-I 3.1 (Eqca-1*00101) with the peptide SDYVKVSNI linked to β2-microglobulin (equine (horse) | horse | )
T1 chain 1: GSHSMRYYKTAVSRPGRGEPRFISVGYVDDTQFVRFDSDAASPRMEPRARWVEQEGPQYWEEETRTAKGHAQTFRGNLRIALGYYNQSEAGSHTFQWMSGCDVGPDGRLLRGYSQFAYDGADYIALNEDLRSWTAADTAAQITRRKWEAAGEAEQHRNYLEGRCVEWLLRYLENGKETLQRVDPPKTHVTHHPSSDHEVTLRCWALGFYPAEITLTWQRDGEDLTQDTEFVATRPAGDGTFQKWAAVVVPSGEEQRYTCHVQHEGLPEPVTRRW
T1 chain 2: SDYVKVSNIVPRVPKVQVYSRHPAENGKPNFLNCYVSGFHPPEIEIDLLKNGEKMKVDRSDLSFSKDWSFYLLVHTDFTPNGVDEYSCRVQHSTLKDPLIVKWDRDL

B1: Recombinant soluble glycoprotein D of equine herpesvirus type 4, gD4_(32-349) (domain or fragment)
chain: ENYRRVVRGNQNQRPEFPPPRYNFTIVTTYNETSLPSPFINDQVKIVDVRTVAATRPCEMIALIAKTNVDSIIKELDAAHKTYSARLTWFKITPTCATPIHDVVYMKCNPKLLFGMCDERSNILWLNSLITTAAETDDELGLVLASPAHSYSGLYRRVIQIDGRRIYTDFSVTIPSSHCPLSFEQNFGNPDRCKTPEQYSRGEVYTSRFLSEFNYRQGVHLAWVKHWFVQDGGNLPVQFYEAQAFARPVPPDNHPGFDSVESEITQNKTNPKQEQASPKPNPPFKWPSIKQLAPRIDEVDNAKEITTKKPPASNSNSTF
modifications: Insect-cell N-glycosylation; disulfides C87/C209, C126/C223, C138/C147. Entity position = paper number -30. The deposited construct starts at E31 although the text prints 32-349; TEV-His6 removed. / …
B2: C-terminally truncated EHV-4 glycoprotein D, gD4_(36-280) (domain or fragment)
chain: VVRGNQNQRPEFPPPRYNFTIVTTYNETSLPSPFINDQVKIVDVRTVAATRPCEMIALIAKTNVDSIIKELDAAHKTYSARLTWFKITPTCATPIHDVVYMKCNPKLLFGMCDERSNILWLNSLITTAAETDDELGLVLASPAHSYSGLYRRVIQIDGRRIYTDFSVTIPSSHCPLSFEQNFGNPDRCKTPEQYSRGEVYTSRFLSEFNYRQGVHLAWVKHWFVQDGGNLPVQFYEAQAFARPVP
modifications: Insect-cell N-glycosylation; disulfides C87/C209, C126/C223, C138/C147. Entity position = paper number -30. / Peptide is covalently linked to beta2m. The linker sequence is not printed (supplement) …
B3: Recombinant soluble glycoprotein D of equine herpesvirus type 1, gD1_(32-349) (domain or fragment)
chain: EKAKRAVRGRQDRPKEFPPPRYNYTILTRYNATALASPFINDQVKNVDLRIVTATRPCEMIALIAKTNIDSILKELAAAQKTYSARLTWFKIMPTCATPIHDVSYMKCNPKLSFAMCDERSDILWQASLITMAAETDDELGLVLAAPAHSASGLYRRVIEIDGRRIYTDFSVTIPSERCPIAFEQNFGNPDRCKTPEQYSRGEVFTRRFLGEFNFPQGEHMTWLKFWFVYDGGNLPVQFYEAQAFARPVPPDNHPGFDSVESEITQNKTDPKPGQADPKPNQPFKWPSIKHLAPRLDEVDEVIEPVTKPPKTSKSNSTF
modifications: N-linked glycosylation (GlcNAc) visible at N53 and N61

Biological target: T1, Recombinant equine MHC-I 3.1 …
Assay: SPR; recombinant equine MHC-I 3.1 amine-coupled to a polycarboxylate hydrogel chip HC200M; gDs injected in serial dilutions from 0 to about 10 uM, 15 min; 25°C; Biacore J; equilibrium response fitted to a 1:1 model; apparent constants
Settings: both partners purified

Binder | Kd [µM]
B1 | 5.8 ± 0.76
B2 | 6.7 ± 0.75
B3 | 7

Reference: PMC10213783, “Crystal structures of glycoprotein D of equine alphaherpesviruses reveal potential binding sites to the entry receptor MHC-I” (Frontiers in Microbiology, 2023)
